According to patent publication US20240216553A1, “DEVELOPMENT OF CD163 TARGETING AGENT FOR IMAGING AND THERAPY” (Washington University, priority 2022, published 2024):
Blank lines part the entries; values can stand above or below the molecule they belong to. Square brackets hold non-standard residues; d marks the D form. Ends that are not written are not given here. Peptide text beside a SMILES is read from it. * marks the point of attachment. X1 = O=C(O)CN1CCN(CC(=O)O)CCN(CC(=O)NCCN2C(=O)CC(*)C2=O)CCN(CC(=O)O)CC1

Tests used:
[1] = human, in vivo
Protocol: Translation of [^64Cu]-DOTA-ECL1i for human Imaging. Animal toxicity studies with non-radioactive Cu-DOTA-ECL1i, dosimetry using [^64Cu]-DOTA-ECL1i in naïve mice were performed and submitted the exploratory investigative new drug (eIND) application to US Food Drug Administration (FDA). Following approvals from FDA, Washington University Radioactive Drug Research Committee (RDRC) and Institutional Review Board (IRB), the human dosimetry studied in six healthy volunteers (3 males, 3 females) who were injected with [^64Cu]-DOTA-ECL1i (5.2 mCi-10.4 mCi) and scanned at 15-30 min, 2-4 h, 20 h, and 44 h post injection was initiated. […] Approximately 80% of the activity was excreted in the urine within 2-4 hours after injection. […] The gender average Effective Dose was 0.064±0.012 rem/mCi (0.073 rem/mCi for females and 0.056 rem/mCi for the males). The critical organ for both genders was the urinary bladder wall, with the highest average estimated dose derived from the female model at 0.45 rad/mCi. Therefore, a dose of 8-10 mCi was injected to each patient in the HNSCC patient studies.

[2] = target: T1, recombinant human CCR2 N-terminus protein (1-42 amino acids) (Homo sapiens, UniProt P41597); test: Peptide ELISA of biotin-labelled peptides; format: binding; design: dose or concentration left out as unconfirmed; details: n=3/group
T1 construct: recombinant human CCR2 N-terminus protein (1-42 amino acids)
T1 sequence (P41597 1-42): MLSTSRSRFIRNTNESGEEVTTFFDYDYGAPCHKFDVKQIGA
Protocol: Phage display screening and identification of new CCR2 binding peptides. Using a recombinant human CCR2 N-terminus protein (1-42 amino acids) with a glutathione s-transferase (GST) tag, phage display screening was performed using Ph.D.™-12 peptide library to identify sequences binding to CCR2. After three rounds of phage selections, 50 phages were selected to amplify in E. coli, titer, and for DNA sequencing. Enzyme-linked immunosorbent assay (ELISA) was performed with pre-selected phages and identified five peptide sequences showing potential binding to CCR2. These peptides conjugated with biotin labels were customized for further peptide ELISA assays. […] Therefore, these peptides were selected as CCR2 binding sequences to synthesize peptide-chelator conjugates. To further confirm the specific binding of these peptides, peptide docking studies were performed based on a crystal structure of CCR2 (PDB Id 6GPS) and receptor structures resulting from molecular dynamics simulations of CCR2 and endogenous ligand CCL2 complex using the program AutoDock CrankPep.

[3] = target: CCR2 (human, on THP-1 cells and in human HNSCC tissue) (human) (UniProt P41597); test: in vitro binding assay using THP-1 cells (competitive receptor binding with the non-radioactive counterpart, per paragraph 179)
[4] = target: T2, CD163 (human, on CD163 overexpressing U87 cells and in human carotid endarterectomy tissue) (human, UniProt Q86VB7 42-1156); test: competitive cell binding on U87 cells overexpressing CD163; cold ICT-01 displaces ^64Cu-ICT-01
T2 construct: whole, on cells; also called CD163 receptor; human CD163
Protocol: The in vitro cell binding assay of ⁶⁴Cu-ICT-01 was performed in U87 cells, which overexpresses CD163 receptor.

[5] = target: T2, CD163 (human, on CD163 overexpressing …); test: competitive cell binding on CD163 overexpressing U87 cells; 37 kBq ^64Cu-ICT-01 with non-radioactive ICT-01 at 10^-5-10^-10 M, gamma counting
Protocol: An in vitro cell binding assay of ⁶⁴Cu-ICT-01 to CD163 was performed with a CD163 overexpressing U87 cell line. U87 cells seeded on a 12-well tissue culture plate were incubated at room temperature with 37 kBq of ⁶⁴Cu-ICT-01 in the presence of non-radioactive ICT-01 in increasing concentrations (10⁻⁵-10⁻¹⁰ M) in binding media (Dulbecco's Modified Eagle Medium (DMEM): 25 mM HEPES, 0.2% bovine serum albumin (BSA), and 0.3 mM 1,10-phenanthroline). The reaction media was aspirated after incubation. Cells were rinsed with 0.8 mL of ice-cold pH 7.4, 0.2% BSA/0.01 M phosphate buffered saline (PBS) twice and lysed in 0.8 mL of 1 M NaOH for 10 min. Each well was rinsed with 0.8 mL of PBS (1×, pH7.4)/0.2% BSA, which was collected into a plastic tube. The radioactivity in tubes was measured with a gamma counter (Wallac Wizard 1480, Perkin Elmer). The half-maximal inhibitory concentration (IC₅₀) for ⁶⁴Cu-ICT-01 was calculated using the GraphPad Prism (10.0.2).

T2 sequence (Q86VB7 42-1156): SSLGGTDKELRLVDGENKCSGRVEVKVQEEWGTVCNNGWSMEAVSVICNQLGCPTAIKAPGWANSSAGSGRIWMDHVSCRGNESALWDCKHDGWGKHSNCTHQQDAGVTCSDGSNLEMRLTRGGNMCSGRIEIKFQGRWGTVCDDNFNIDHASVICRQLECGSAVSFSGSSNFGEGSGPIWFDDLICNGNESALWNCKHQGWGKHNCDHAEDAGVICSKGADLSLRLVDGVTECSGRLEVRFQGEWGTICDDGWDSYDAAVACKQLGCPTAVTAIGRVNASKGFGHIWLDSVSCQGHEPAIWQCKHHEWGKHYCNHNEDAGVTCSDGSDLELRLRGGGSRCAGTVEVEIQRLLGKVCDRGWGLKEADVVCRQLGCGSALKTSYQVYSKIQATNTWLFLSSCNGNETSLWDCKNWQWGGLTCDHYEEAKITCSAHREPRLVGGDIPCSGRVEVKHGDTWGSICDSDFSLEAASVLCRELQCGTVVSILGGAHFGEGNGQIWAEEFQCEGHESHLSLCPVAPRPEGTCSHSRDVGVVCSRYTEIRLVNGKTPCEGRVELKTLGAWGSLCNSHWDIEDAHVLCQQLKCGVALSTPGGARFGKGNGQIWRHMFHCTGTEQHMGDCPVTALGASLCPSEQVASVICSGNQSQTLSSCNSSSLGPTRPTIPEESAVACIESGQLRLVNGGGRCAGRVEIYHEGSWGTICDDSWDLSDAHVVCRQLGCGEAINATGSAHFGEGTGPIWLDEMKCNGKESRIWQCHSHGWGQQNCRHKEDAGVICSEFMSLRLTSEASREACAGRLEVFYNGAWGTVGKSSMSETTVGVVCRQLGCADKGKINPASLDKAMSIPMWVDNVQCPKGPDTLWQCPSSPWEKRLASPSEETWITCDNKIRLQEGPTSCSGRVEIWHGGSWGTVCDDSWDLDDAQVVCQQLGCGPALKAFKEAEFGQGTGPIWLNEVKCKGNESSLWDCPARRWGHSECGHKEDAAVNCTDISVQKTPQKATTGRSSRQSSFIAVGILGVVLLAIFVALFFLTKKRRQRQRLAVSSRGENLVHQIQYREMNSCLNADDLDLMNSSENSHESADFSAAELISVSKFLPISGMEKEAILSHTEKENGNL

Molecule: CC(C)C[C@@H](N)C(=O)NCC(=O)N[C@@H](C(=O)N[C@H](Cc1ccccc1)C(=O)N[C@H](CC(C)C)C(=O)N[C@H](CCCCN)C(=O)N[C@H](CSC1CC(=O)N(CCNC(=O)CN2CCN(CC(=O)O)CCN(CC(=O)O)CCN(CC(=O)O)CC2)C1=O)C(=O)O)[C@H](C)O (stereo partly drawn) [[^64Cu]-DOTA-ECL1i, metal not drawn] (H-[dL]G[dT][dF][dL][dK][dC](X1)-OH; N-terminus and C-terminus assumed)
- Effective Dose, females [1]: 0.073 rem/mCi
- Effective Dose, males [1]: 0.056 rem/mCi
- gender average Effective Dose [1]: 0.064±0.012 rem/mCi
- highest average estimated dose, urinary bladder wall (critical organ) [1]: 0.45 rad/mCi

- binding to CCR2 N-terminus protein compared to GST tag alone and BSA [2]: significantly higher binding
Molecule: HWKWLKPWAVNT [P15]

- binding to CCR2 N-terminus protein compared to GST tag alone and BSA [2]: significantly higher binding
Molecule: LIPAPGGTPRAG [P21]

- binding to CCR2 N-terminus protein compared to GST tag alone and BSA [2]: significantly higher binding
Molecule: VDDHYGTIVRNG [P08]

- IC50 [3]: 58.3 nM
Molecule: [^64Cu]-DOTA-ECL1i (peptide)

- IC50 [4]: 26.8 nM
- IC50 [5]: 14.4 nM
B1: ICT-01 (non-radioactive) (peptide)
peptide: WFWNHGWQWSSK
modifications: not fully specified
notes: also called non-radioactive ICT-01; CD163 targeting peptide ICT-01
